The values below come from paper PMC5503811.

Assay [1] deals with ALDH7A1 G255D (human). The experiment in a line: AUC.
The target in assay [2] is wild-type human aldehyde dehydrogenase 7A1 (human). The experiment in a line: AUC.

The substance ALDH7A1 G255D (enzyme) had a Ka in assay [1] of 750000 M⁻¹. On to “wild-type human aldehyde dehydrogenase 7A1 (enzyme)”, for which, in assay [2], the stoichiometry N worked out at 4.
